Biological target: GCH065-G1T6v2/L0011-kT0
Test: CIEX peak area ratio; coexpression from mRNAs (heavy 1/light/heavy 2 = 1/4/1) in Expi293 cells

Chain of GCH065-G1T6v2/L0011-kT0 (heavy, as listed by the source): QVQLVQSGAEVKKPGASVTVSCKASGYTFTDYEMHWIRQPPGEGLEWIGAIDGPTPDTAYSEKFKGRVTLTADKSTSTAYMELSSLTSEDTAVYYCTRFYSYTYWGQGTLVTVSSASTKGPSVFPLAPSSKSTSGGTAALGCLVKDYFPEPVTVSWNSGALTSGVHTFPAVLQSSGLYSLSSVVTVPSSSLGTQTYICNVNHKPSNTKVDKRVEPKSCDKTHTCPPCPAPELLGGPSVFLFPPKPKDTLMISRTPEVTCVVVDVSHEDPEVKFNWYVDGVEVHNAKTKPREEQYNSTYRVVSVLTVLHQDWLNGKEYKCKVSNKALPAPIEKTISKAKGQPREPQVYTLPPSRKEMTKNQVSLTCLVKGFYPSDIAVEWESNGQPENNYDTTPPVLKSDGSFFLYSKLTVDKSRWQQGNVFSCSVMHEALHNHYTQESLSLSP

Heavy chain heteromultimer (TG, T1G2, QJ, Q3J4) (%): 2.07%
B1: TR01H113-G1T6/L0011-kT0 (antibody, human IgG1, kappa, V domains shown)
VH: QVQLVESGGGVVQPGGSLRLSCAASGFTFSNAWMHWVRQAPGKGLEWVAQIKDKSQNYATYVAESVKGRFTISRADSKNSIYLQMNSLKTEDTAVYYCRYVHYAAGYGVDIWGQGTTVTVSS
VL: DIVMTQSPLSLPVTPGEPASISCRSSQPLVHSNRNTYLHWYQQKPGQAPRLLIYKVSNRFSGVPDRFSGSGSGTDFTLKISRVEAEDVGVYYCGQGTQVPYTFGQGTKLEIKR
